This is an account of results in publication PMC6656774, “Functional importance of the oligomer formation of the cyanobacterial H^+ pump Gloeobacter rhodopsin” (Scientific Reports, 2019).

Data set [1] concerns the target T1, Asp121 (UniProt position 121, AYRYVDWLLTV). As to the kind of experiment: UV-vis. The conditions noted are these: room temperature; 0.3 M NaCl; 6-mix buffer (1.37 mM citric acid, 0.46 mM ADA, 1.04 mM MOPS, 1.25 mM TAPS, 0.81 mM CHES, 1.39 mM CAPS); pH adjusted with HCl or NaOH; unphotolyzed (dark) state, retinal-bound, in nanodisc.
For data set [2], the target named is T1, Asp121. As to conditions: DDM-solubilized, monomeric; cited from earlier work.
Another data set has as its target Asp97 (UniProt position 97, VFRYIDWLLTV). The conditions noted are these: monomeric proteorhodopsin; cited from earlier work.
Data set [3] concerns the molecule itself. The data set can be described thus: sucrose density gradient centrifugation + absorption spectra (MSP amount per GR from A280); higher-density nanodisc band NDH, reconstituted at pH 5.5, separated on a 10-40% sucrose gradient; spectra in 6-mix buffer, pH 7, 0.3 M NaCl, set to the same peak at about 540 nm.

Where two headings read alike, the source gives them in different places.

For the molecule “Gloeobacter rhodopsin (GR), wild type, monomer in nanodisc (NDL) (Gloeobacter violaceus)”, in the data set with Asp121 [1], the pKa (as a rule, the pH at which an ionisable group is half protonated) is 7.41. Same read-out and setting: for “Gloeobacter rhodopsin (GR), wild type, trimer in nanodisc (NDH) (Gloeobacter violaceus)” the value was 4.52. In the case of “Gloeobacter rhodopsin H87M, DDM-solubilized (Gloeobacter violaceus; H87M)”, the pKa entry with Asp121 [2] was “approximately 4”. For “Gloeobacter rhodopsin H87M, monomer in nanodisc (Gloeobacter violaceus; H87M)”, in the data set with Asp121 [1], the pKa result was “approximately 3.72”. Take “Proteorhodopsin (PR), monomeric (uncultured marine gamma-proteobacterium (the article says only that the gene came from a DNA fragment of gamma-proteobacteria))”: the pKa in the data set with Asp97 is 7.5–7.7.

B1: Gloeobacter rhodopsin (GR), wild type, C-terminal His-tagged (natural protein, Gloeobacter violaceus, UniProt Q7NP59 1-298, looked up)
chain: MLMTVFSSAPELALLGSTFAQVDPSNLSVSDSLTYGQFNLVYNAFSFAIAAMFASALFFFSAQALVGQRYRLALLVSAIVVSIAGYHYFRIFNSWDAAYVLENGVYSLTSEKFNDAYRYVDWLLTVPLLLVETVAVLTLPAKEARPLLIKLTVASVLMIATGYPGEISDDITTRIIWGTVSTIPFAYILYVLWVELSRSLVRQPAAVQTLVRNMRWLLLLSWGVYPIAYLLPMLGVSGTSAAVGVQVGYTIADVLAKPVFGLLVFAIALVKTKADQESSEPHAAIGAAANKSGGSLIS
modifications: retinal bound by a protonated Schiff base linkage (residue not given)
notes: Gloeobacter rhodopsin, H+ pump from the cyanobacterium Gloeobacter violaceus; The same protein was trapped as a trimer (nanodisc band NDH) and as a monomer (nanodisc band NDL) after reconstitution at pH 5.5; also called wild-type GR; trimeric GR (in NDH); source: E. coli BL21(DE3), solubilized with DDM, purified (Ni-NTA agarose); reconstituted into MSP1E3D1/POPC nanodiscs or kept in DDM
B1: in data set [3], the “MSP amount per GR, NDL against NDH” value is 3.3 fold and the stoichiometry N – broadly, the number of molecules, sites or subunits per partner or assembly – was determined as 3.
